Results taken from the DeepSol protein solubility set.

Assay: soluble on expression in E. coli; label from the status in PepcDB or PDB records
For “MIIDDIINKIKSSNKIAISFHISPDGDSIGSSLGLLNGLRSIGKETYILSKEVVPESFEFLNFAREIDGNHFEVEDNTDLLITLDCGNIERLNFDTSDMISEDKKYTVINIDHHVTNDSFGDLNYINTKAASVGEIVYDLLSKMNISIDRTIAACLYTSILTDTGSFRFSNTTLNTHVVAGNLISTGLDFSEIHRKIFDNKKFEALKLQALVLNDMYLTFNNKLCVMKVTHDFIEKANAEDVDTGDLVSLGLKVNTAEVCMLLKEKDDCIKVSLRSKSYVDVRKIAEKFGGGGHIRAAGLSINSNILDAEKMILSEIQGELLEHHHHHH”, the “soluble on expression in E. coli” value was “not soluble”. For “MAHHHHHHMVSAPQIRSIPCGSGDFSVMKRSLIARWQSGVHTPHGVVYRGAKMKNWPEQRIPENFKFTEEQRFRTKAIPRDVGTIPRNFVLGVLYRHQPCEVGGLWEHCTNDPEIVLDSKRHLREVLKQAREEGFVTFERDAISNEWLCFLTRERYEEVQRIVTAKSEAVDAHSGLRGAAATETSTYAEKFREMNVEAKEAHARRLEEEVANTTRYLRRFQQREIDYLPYTDLNGKVNFMWWYETRDVQQRADEVLTDSSSSKALAGEEEHKAGSQLEATTASTS”, the “soluble on expression in E. coli” value was “soluble”. With “MGIRLKDLSKLGYRDNVARSLVVDIVGKYCKHDTKEQIAMTLSNILEHPESYKNNEIWSKLAERLSPTVLAKEFVAYDLREDPLMYKTYGGKFIETLAKQQMNLAMRLPVTVGGALMPDAHAGYGLPIGGVLATDNAVIPYAVGVDIGCRMSLTVFDAKADFLKRYSYQIKEALKDFTHFGMDGGLGFEQEHEVLDREEFRLTPLLKDLQGKAVRQLGSSGGGNHFVEFGEIALQADNVLNLPEGSYVALLSHSGSRGLGAAIAKHYSLLAREVCKLPREAQHFAWLSLDSEEGQEYWMSMNLAGDYARACHERIHLNLSKALGLKPVANVNNHHNFAWKEEIAPGRMAIVHRKGATPAQKGQAGLIPGSMATAGYLVCGKGVEESLCSASHGAGRAMSRQKAKESFTQSALKKMLSQADVTLIGGSIEEIPLAYKDIDRVMYTQETLVEVQGRFMPRIVRMNKE” the “soluble on expression in E. coli” value was “not soluble”. For “MKTLILFSTRDGQTREIASYLASELKELGIQADVANVHRIEEPQWENYDRVVIGASIRYGHYHSAFQEFVKKHATRLNSMPSAFYSVNLVARKPEKRTPQTNSYARKFLMNSQWRPDRCAVIAGALRYPRYRWYDRFMIKLIMKMSGGETDTRKEVVYTDWEQVANFAREIAHLTDKPTLK”, the “soluble on expression in E. coli” value was “not soluble”. In the case of “MRIIKFPEQISEDIIHYTFLDDIISYNCEKCRGSCCHVNNSLLLDAKTASFLKRTYLKDFIVSDDSVSLLSCGKKCWFHSELGCTINDLGLNKPLTCELYPFHIKKIQNFYIVSFTPCPTFQLNLGEGQRYKDIEDVVLRYIKTGVPVFSPSLHVSEERLKYEIEYQNNFKNTLSEYYRTKTADGTTEFKEYEKWYIYYLDFRWGSIPLSYTSSQANQFWNLYKRVCEDVYKKISYIRTDNIYFIIANQFNKTISKHFQLNFIDKE”, the “soluble on expression in E. coli” value is reported as “soluble”. For “HITLNYLSKTLGMHQTINVILPEDKSYFDTNENAKPLKTMLLLHGLSSDTSSYMRYTSIERYANTHQLAVVMPNADHSFYSNMAYGHSYYDYILEVYDYVHQILPLSKKREDNFIAGHSMGGYGAIKFALTQSYRFSKAAMLSAPYDVSMIGQYQWYDFTPEAIVGNTQHVAGTSFDPYYLVEQAIDNGQALPQLYITCGTEDELYQGNIDFVNYLDEKGIPYQFKKAPGNHDYAFWDKAIEDVIDRF”, the “soluble on expression in E. coli” value was “not soluble”. In the case of “SDHVDLPYNLTATKIDSDVFVVTDRDFYSSNVLVAKMLDGTVVIVSSPFENLGTQTLMDWVAKTMKPKKVVAINTHFHLDGTGGNEIYKKMGAETWSSDLTKQLRLEENKKDRIKAAEFYKNEDLKRRILSSHPVPADNVFDLKQGKVFSFSNELVEVSFPGPAHSPDNVVVYFPKKKLLFGGCMIKPKELGYLGDANVKAWPDSARRLKKFDAKIVIPGHGEWGGPEMVNKTIKVAEKAVGEMRL”, the “soluble on expression in E. coli” value is reported as “soluble”. For “MIGLLFLFAACQEKVTSPAKVDTLPSIFPDYVGVTIPSTIAPLNFRVTDDGVEAVDVVIAGTKGKPVRLNGRSVDIPAKQWHELLESNKGDSIEVKVSVRQGKKWKEYRPFPIYVSPFPIDYGLVYRLLAPGYEVYSKMGIYERELSTFRQTPLFENTQVTAACINCHAFNRTEPTPSSVHVRGGHGATVIDTGDRLEFLDTKADGQLSACVYPYWHPSGEYIAYSVNKTNQAFHLGGKKPIEVFDQASDVVVYHPRSHRILTTPLLSTASFETFPAFSPDGRTLYFCSAEQKEMPVRYKDVKYSLCSIAFHPEDGTFGDRIDTLISARTLDKSISFPKPSFDGKYLMFTLSDYGNFSIWHKEADLWLLDLKTGTYRNLEEVNSDDTESYHNWSSNSHWFVFSSRRGDGLYTRLYISSVDGQGRIGKPFLLPQQDPYTFYDQLIYSYNVPEFVSAPVQWDKREMAKGLMSKERVKVKLEHHHHHH”, the “soluble on expression in E. coli” value was “not soluble”.
